Patent publication US20240400627A1

Columns and labels:
[1] = target: Nicotinamide Nucleotide Transhydrogenase (NNT), endogenous, mouse kidney (mouse) (UniProt Q61941); experiment: anti-HA immunoprecipitation from DTSSP-crosslinked crude mitochondria, LC-MS/MS proteomics, n=3 per group
[2] = target: Ganab (glucosidase II alpha-subunit), endogenous, mouse kidney (mouse) (UniProt Q8BHN3); experiment: anti-HA immunoprecipitation from DTSSP-crosslinked crude mitochondria (contain MAMs), LC-MS/MS proteomics
Chain of Ganab (glucosidase II alpha-subunit), endogenous, mouse kidney (mouse) (Q8BHN3 33-944 limits assumed): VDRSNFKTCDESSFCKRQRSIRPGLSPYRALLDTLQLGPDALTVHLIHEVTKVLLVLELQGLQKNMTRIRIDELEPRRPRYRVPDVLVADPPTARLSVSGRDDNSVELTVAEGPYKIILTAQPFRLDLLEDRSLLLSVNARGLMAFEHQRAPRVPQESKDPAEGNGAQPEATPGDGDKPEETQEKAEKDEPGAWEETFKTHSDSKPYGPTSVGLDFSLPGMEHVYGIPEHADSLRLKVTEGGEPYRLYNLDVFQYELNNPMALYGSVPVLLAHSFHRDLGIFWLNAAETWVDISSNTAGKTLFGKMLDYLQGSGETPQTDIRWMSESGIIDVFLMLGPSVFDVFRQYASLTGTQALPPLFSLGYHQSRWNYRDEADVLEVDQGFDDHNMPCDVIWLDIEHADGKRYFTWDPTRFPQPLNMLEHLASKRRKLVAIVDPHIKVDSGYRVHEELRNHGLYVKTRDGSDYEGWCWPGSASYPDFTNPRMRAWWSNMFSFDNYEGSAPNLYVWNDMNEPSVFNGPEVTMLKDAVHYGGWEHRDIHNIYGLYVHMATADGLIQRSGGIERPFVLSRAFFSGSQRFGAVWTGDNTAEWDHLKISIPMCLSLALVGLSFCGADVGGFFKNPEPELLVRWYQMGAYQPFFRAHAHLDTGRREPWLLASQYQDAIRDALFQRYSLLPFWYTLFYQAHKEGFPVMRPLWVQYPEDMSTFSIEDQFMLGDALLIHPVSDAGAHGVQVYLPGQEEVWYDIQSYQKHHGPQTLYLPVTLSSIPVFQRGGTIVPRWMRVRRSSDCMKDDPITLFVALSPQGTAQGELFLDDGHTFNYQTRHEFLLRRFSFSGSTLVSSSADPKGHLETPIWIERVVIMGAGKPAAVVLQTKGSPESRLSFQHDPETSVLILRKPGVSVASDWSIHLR

Chain of 3FLAG-PC1-3HA (PC1 tagged with a 3xFLAG epitope at its N-terminus and a 3xHA sequence at its C-terminus, Pkd1F/H-BAC mouse) and its HA-tagged fragments (150-kDa CTF; PC1-CTT-3HA fragments of 17-37 kDa (O08852 3041-4293): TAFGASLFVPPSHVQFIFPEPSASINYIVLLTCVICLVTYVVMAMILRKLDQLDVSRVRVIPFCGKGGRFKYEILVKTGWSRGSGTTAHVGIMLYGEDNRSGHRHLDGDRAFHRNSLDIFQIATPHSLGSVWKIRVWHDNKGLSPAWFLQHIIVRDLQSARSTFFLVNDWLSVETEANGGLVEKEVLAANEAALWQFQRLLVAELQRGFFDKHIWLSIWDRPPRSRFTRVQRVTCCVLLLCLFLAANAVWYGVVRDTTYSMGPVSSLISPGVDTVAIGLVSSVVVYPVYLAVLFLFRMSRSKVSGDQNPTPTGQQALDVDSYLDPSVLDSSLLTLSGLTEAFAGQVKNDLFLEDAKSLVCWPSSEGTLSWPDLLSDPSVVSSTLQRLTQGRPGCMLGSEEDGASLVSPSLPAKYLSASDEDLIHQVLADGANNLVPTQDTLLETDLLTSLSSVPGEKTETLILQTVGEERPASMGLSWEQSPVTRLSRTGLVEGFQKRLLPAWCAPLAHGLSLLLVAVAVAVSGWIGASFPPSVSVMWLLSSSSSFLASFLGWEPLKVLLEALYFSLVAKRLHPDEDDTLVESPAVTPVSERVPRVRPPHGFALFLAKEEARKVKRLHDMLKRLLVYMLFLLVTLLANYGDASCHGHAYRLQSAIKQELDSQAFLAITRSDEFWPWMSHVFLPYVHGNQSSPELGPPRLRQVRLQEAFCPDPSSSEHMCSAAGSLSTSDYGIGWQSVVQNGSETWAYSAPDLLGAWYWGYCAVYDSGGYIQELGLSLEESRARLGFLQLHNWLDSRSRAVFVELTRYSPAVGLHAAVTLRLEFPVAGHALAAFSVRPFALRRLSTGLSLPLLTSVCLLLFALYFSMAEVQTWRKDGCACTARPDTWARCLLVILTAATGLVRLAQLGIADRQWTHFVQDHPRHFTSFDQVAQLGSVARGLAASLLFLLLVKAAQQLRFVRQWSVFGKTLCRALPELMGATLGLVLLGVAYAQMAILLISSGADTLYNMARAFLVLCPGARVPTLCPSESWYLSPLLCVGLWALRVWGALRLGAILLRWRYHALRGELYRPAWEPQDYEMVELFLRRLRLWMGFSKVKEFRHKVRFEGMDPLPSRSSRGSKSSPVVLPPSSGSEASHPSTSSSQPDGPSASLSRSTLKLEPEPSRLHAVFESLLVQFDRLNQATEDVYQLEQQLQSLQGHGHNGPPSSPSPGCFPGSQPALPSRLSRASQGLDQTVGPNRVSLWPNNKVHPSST
Chain of Nicotinamide Nucleotide Transhydrogenase (NNT), endogenous, mouse kidney (mouse) (Q61941 44-1086 limits assumed): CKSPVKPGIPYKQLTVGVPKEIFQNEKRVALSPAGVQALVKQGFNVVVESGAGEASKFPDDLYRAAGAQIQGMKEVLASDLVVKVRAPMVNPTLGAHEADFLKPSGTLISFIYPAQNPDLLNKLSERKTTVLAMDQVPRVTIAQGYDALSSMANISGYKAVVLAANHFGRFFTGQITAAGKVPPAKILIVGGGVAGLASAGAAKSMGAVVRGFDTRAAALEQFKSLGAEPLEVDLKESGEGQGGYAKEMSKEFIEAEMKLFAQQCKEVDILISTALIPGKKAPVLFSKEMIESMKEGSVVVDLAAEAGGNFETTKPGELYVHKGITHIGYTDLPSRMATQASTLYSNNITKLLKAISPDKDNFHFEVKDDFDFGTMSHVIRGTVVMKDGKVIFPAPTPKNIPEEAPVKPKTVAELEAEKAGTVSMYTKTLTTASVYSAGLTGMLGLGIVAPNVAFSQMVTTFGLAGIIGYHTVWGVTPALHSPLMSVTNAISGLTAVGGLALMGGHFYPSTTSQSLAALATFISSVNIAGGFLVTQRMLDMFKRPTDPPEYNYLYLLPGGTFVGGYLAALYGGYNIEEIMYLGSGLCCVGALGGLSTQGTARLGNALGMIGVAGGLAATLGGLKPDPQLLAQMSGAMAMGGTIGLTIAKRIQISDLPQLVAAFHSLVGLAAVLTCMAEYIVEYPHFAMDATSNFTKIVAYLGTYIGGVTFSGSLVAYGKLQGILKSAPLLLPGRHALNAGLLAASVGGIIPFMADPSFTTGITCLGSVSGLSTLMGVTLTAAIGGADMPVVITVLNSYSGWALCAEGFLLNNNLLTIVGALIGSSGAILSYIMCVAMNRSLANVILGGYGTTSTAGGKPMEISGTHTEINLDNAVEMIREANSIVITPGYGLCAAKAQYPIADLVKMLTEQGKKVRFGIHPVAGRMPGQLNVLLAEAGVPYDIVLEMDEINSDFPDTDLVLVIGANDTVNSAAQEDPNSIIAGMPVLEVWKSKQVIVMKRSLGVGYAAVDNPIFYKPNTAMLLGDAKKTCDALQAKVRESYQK

fold amount of NNT co-immunoprecipitated against control WT immunoprecipitates [1]: > 16 fold
fold enrichment in immunoprecipitates against WT [2]: 4 fold
Substance: 3FLAG-PC1-3HA (PC1 tagged with a 3xFLAG epitope at its N-terminus and a 3xHA sequence at its C-terminus, Pkd1F/H-BAC mouse) and its HA-tagged fragments (150-kDa CTF; PC1-CTT-3HA fragments of 17-37 kDa) (from UniProt O08852 3041-4293)
